These results are taken from the supplement of paper PMC10567573.

The chains are these.
B1: TMEM106C (parent)
chain: TVPEILVHNIVIFMRTSVKISYIG
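Also: lentivirally expressed fusions sorted by FACS into six bins by GFP to DsRed ratio, PSI derived from sequencing read proportions per bin multiplied by bin number.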

Variants of B1 are the subject of the data set. As to the kind of experiment: protein stability index of a GFP-peptide fusion (GPS, HEK-293T) (PSI 1-6); higher = more stable. Particulars: c terminus: a fixed tail appended.
TVPEILVHNIVKFMRTSVKISYIG: the protein stability index worked out at 2.81.
TVPEILVHNIVDFMRTSVKISYIG: the protein stability index came out at 3.93.
To TVPEILVHNIVMFMRTSVKISYIG belongs 2.29; to TVPEILVHNIVFFMRTSVKISYIG, 2.8; to TVPEILVHNIVRFMRTSVKISYIG, 3.25.
TVPEILVHNIVPFMRTSVKISYIG: the protein stability index turned out to be 2.19.
TVPEILVHNIVHFMRTSVKISYIG: the protein stability index stood at 3.33.
Consider TVPEILVHNIVGFMRTSVKISYIG, for which the protein stability index came to 3.97.
As to TVPEILVHNIVWFMRTSVKISYIG, the protein stability index was determined as 2.08.
TVPEILVHNIVCFMRTSVKISYIG: the protein stability index stood at 2.8.
On to TVPEILVHNIVLFMRTSVKISYIG, for which the protein stability index came to 3.84.
Regarding TVPEILVHNIVYFMRTSVKISYIG, the protein stability index stood at 3.05.
Regarding TVPEILVHNIVQFMRTSVKISYIG, the protein stability index came out at 2.11.
To TVPEILVHNIVSFMRTSVKISYIG belongs 2.88; to TVPETLVHNIVIFMRTSVKISYIG, 3.88.
Regarding TVPELLVHNIVIFMRTSVKISYIG, the protein stability index was 2.94.
With TVPEMLVHNIVIFMRTSVKISYIG, the protein stability index turned out to be 2.67.
In the case of TVPEKLVHNIVIFMRTSVKISYIG, the protein stability index was found to be 1.73.
Consider TVPEFLVHNIVIFMRTSVKISYIG, for which the protein stability index came to 3.14.
Regarding TVPEDLVHNIVIFMRTSVKISYIG, the protein stability index was found to be 3.24.
For TVPEHLVHNIVIFMRTSVKISYIG, the protein stability index was 4.38.
As for TVPEWLVHNIVIFMRTSVKISYIG, the protein stability index was determined as 2.49.
For TVPEALVHNIVIFMRTSVKISYIG, the protein stability index is 2.92.
As for TVPEYLVHNIVIFMRTSVKISYIG, the protein stability index worked out at 2.58.
Turning to TVPESLVHNIVIFMRTSVKISYIG, the protein stability index is 2.36.
Consider TVPEGLVHNIVIFMRTSVKISYIG, for which the protein stability index turned out to be 2.54.
For TVPEQLVHNIVIFMRTSVKISYIG, the protein stability index worked out at 3.61.
With TVPENLVHNIVIFMRTSVKISYIG, the protein stability index turned out to be 2.34.
On to TVPEPLVHNIVIFMRTSVKISYIG, for which the protein stability index worked out at 3.34.
Consider TVPERLVHNIVIFMRTSVKISYIG, for which the protein stability index is 2.19.
To TVPEELVHNIVIFMRTSVKISYIG belongs 4.16; to TVPEILGHNIVIFMRTSVKISYIG, 3.49.
For the variant TVPEILAHNIVIFMRTSVKISYIG, the protein stability index was 3.25.
To TVPEILCHNIVIFMRTSVKISYIG belongs 3.89.
To TVPEILYHNIVIFMRTSVKISYIG belongs 3.26; to TVPEILWHNIVIFMRTSVKISYIG, 3.68; to TVPEILIHNIVIFMRTSVKISYIG, 4.62.
Take TVPEILQHNIVIFMRTSVKISYIG: the protein stability index stood at 3.02.
For TVPEILSHNIVIFMRTSVKISYIG, the protein stability index turned out to be 2.37.
Consider TVPEILDHNIVIFMRTSVKISYIG, for which the protein stability index came out at 2.53.
For TVPEILRHNIVIFMRTSVKISYIG, the protein stability index was determined as 2.44.
To TVPEILNHNIVIFMRTSVKISYIG belongs 2.83; to TVPEILLHNIVIFMRTSVKISYIG, 2.24.
Turning to TVPEILMHNIVIFMRTSVKISYIG, the protein stability index is 2.05.
To TVPEILKHNIVIFMRTSVKISYIG belongs 3.79; to TVPEILFHNIVIFMRTSVKISYIG, 2.51.
Take TVPEILPHNIVIFMRTSVKISYIG: the protein stability index was 3.59.
On to TVPEILTHNIVIFMRTSVKISYIG, for which the protein stability index stood at 2.15.
As to TVPEILEHNIVIFMRTSVKISYIG, the protein stability index came out at 4.49.
With TVPEILHHNIVIFMRTSVKISYIG, the protein stability index stood at 3.09.
Regarding TVPEILVNNIVIFMRTSVKISYIG, the protein stability index came out at 3.21.
To TVPEILVFNIVIFMRTSVKISYIG belongs 3.98; to TVPEILVDNIVIFMRTSVKISYIG, 3.5; to TVPEILVRNIVIFMRTSVKISYIG, 2.67.
Turning to TVPEILVQNIVIFMRTSVKISYIG, the protein stability index stood at 2.63.
Turning to TVPEILVSNIVIFMRTSVKISYIG, the protein stability index was found to be 3.74.
Take TVPEILVINIVIFMRTSVKISYIG: the protein stability index amounted to 2.58.
With TVPEILVKNIVIFMRTSVKISYIG, the protein stability index was 3.34.
With TVPEILVLNIVIFMRTSVKISYIG, the protein stability index was determined as 3.28.
In the case of TVPEILVGNIVIFMRTSVKISYIG, the protein stability index worked out at 2.27.
As to TVPEILVTNIVIFMRTSVKISYIG, the protein stability index was found to be 2.41.
With TVPEILVPNIVIFMRTSVKISYIG, the protein stability index came out at 3.19.
To TVPEILVVNIVIFMRTSVKISYIG belongs 2.81.
As to TVPEILVHNPVIFMRTSVKISYIG, the protein stability index came to 2.49.
In the case of TVPEILVHNFVIFMRTSVKISYIG, the protein stability index amounted to 3.5.
With TVPEILVHNKVIFMRTSVKISYIG, the protein stability index came to 4.3.
Take TVPEILVHNWVIFMRTSVKISYIG: the protein stability index was 3.61.
TVPEILVHNGVIFMRTSVKISYIG: the protein stability index came to 4.19.
To TVPEILVHNVVIFMRTSVKISYIG belongs 2.92; to TVPEILVHNHVIFMRTSVKISYIG, 3.4; to TVPEILVHNRVIFMRTSVKISYIG, 2.42.
TVPEILVHNAVIFMRTSVKISYIG: the protein stability index worked out at 3.07.
For the variant TVPEILVHNTVIFMRTSVKISYIG, the protein stability index turned out to be 2.67.
With TVPEILVHNQVIFMRTSVKISYIG, the protein stability index is 2.94.
On to TVPEILVHNYVIFMRTSVKISYIG, for which the protein stability index was 2.71.
For the variant TVPEILVHNDVIFMRTSVKISYIG, the protein stability index was 2.47.
Take TVPEILVHNNVIFMRTSVKISYIG: the protein stability index came out at 2.65.
To TVPEILVHNMVIFMRTSVKISYIG belongs 3.31; to TVPEILVHNCVIFMRTSVKISYIG, 2.67; to TVPEILVHNEVIFMRTSVKISYIG, 3.64.
For TVPTILVHNIVIFMRTSVKISYIG, the protein stability index is 2.5.
As to TVPHILVHNIVIFMRTSVKISYIG, the protein stability index was 2.29.
On to TVPVILVHNIVIFMRTSVKISYIG, for which the protein stability index is 3.21.
For TVPMILVHNIVIFMRTSVKISYIG, the protein stability index is 4.55.
As for TVPDILVHNIVIFMRTSVKISYIG, the protein stability index turned out to be 3.56.
To TVPQILVHNIVIFMRTSVKISYIG belongs 2.61; to TVPFILVHNIVIFMRTSVKISYIG, 2.67; to TVPKILVHNIVIFMRTSVKISYIG, 2.94.
To TVPYILVHNIVIFMRTSVKISYIG belongs 2.81; to TVPSILVHNIVIFMRTSVKISYIG, 2.88; to TVPGILVHNIVIFMRTSVKISYIG, 3.29.
Turning to TVPNILVHNIVIFMRTSVKISYIG, the protein stability index worked out at 2.99.
As for TVPLILVHNIVIFMRTSVKISYIG, the protein stability index was determined as 3.55.
On to TVPIILVHNIVIFMRTSVKISYIG, for which the protein stability index came to 2.02.
